{"source": "paper PMC9636575", "about": "“MqsR is a noncanonical microbial RNase toxin that is inhibited by antitoxin MqsA via steric blockage of substrate binding” (The Journal of Biological Chemistry, 2022)", "target": "T1, MqsR (E. coli, UniProt Q46865 1-98)", "T1 construct": "also called MqsR toxin; 15N-labeled MqsR", "T1 sequence (Q46865 whole entry)": "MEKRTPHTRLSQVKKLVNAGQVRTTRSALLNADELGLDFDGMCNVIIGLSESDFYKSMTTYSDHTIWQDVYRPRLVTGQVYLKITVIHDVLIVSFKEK", "test": "NMR titration; unlabeled MqsA(1-76) titrated into 15N-labeled MqsR (50 uM); 2D [1H,15N] HSQC; 298 K; 50 mM NaCl, 20 mM Na phosphate pH 6.5, 0.5 mM TCEP, 10% D2O", "conditions": "both partners purified"}
{"binder": "N-terminal toxin-binding domain of MqsA (residues 1-76) (domain or fragment, also called MqsA_(1-76); unlabeled MqsA_(1-76)) MKCPVCHQGEMVSGIKDIPYTFRGRKTVLKGIHGLYCVHCEESIMNKEESDAFMAQVKAFRASVNAETVAPEFIVK", "values": [{"measurement": "binding result", "value": "binds"}]}
